According to publication PMC10338342:

Columns and labels:
[1] = biological target: nucleosome core particle: human histone octamer (H2A, H2B, H3.1, H4) wrapped by DNA, P04908;P06899;P68431;P62805; test: smTIRF colocalization single-molecule imaging; conditions: substrate NCP
[2] = test system: MYC bHLH-LZ;MAX bHLH-LZ (human;human), P01106-1+P61244; test: TR-FRET; conditions: about threefold vs without, EMSA/SeEN-seq: 20 mM Tris-HCl pH 7.5, 75 mM NaCl, 10 mM KCl, 1 mM MgCl2, 0.1 mg/ml BSA, 1 mM DTT, room temp ~1 h, TR-FRET: 20 mM Tris-HCl pH 7.5, 75 or 125 mM …
[3] = biological target: nucleosome core particle: human histone octamer (H2A, H2B, H3.1, H4) wrapped by DNA (human) (UniProt P04908); test: mass photometry; CLOCK-BMAL1 with NCP SHL+5.8 (single E-box), 10 and 60 nM (1:6), 20 mM Tris-HCl pH 7.5, 100 mM KCl, 0.5 mM TCEP
[4] = biological target: nucleosome core particle: human histone octamer (H2A, H2B, H3.1, H4) wrapped by DNA (human) (UniProt P04908); test: mass photometry; CLOCK-BMAL1 with NCP SHL−6.2, 10 and 60 nM (1:6), 20 mM Tris-HCl pH 7.5, 100 mM KCl, 0.5 mM TCEP, 30 min room temperature
[5] = biological target: nucleosome core particle: human histone octamer (H2A, H2B, H3.1, H4) wrapped by DNA (human) (UniProt P04908); test: mass photometry; CLOCK-BMAL1 with NCP SHL+5.8-tandem (2 E-boxes with 7-bp spacing in a 601 sequence), 10 and 60 nM (1:6), 20 mM Tris-HCl pH 7.5, 100 mM KCl, 0.5 mM TCEP
[6] = biological target: CLOCK bHLH PAS-AB;BMAL1 bHLH PAS-AB WT (mouse;mouse) (UniProt O08785+Q9WTL8); test: mass photometry; conditions: EMSA/SeEN-seq: 20 mM Tris-HCl pH 7.5, 75 mM NaCl, 10 mM KCl, 1 mM MgCl2, 0.1 mg/ml BSA, 1 mM DTT, room temp ~1 h, TR-FRET: 20 mM Tris-HCl pH 7.5, 75 or 125 mM …
[7] = biological target: nucleosome core particle with H2B(T122C–biotin): H2A–H2B(T122C–biotin)–H3.1–H4 octamer wrapped by DNA (human) (UniProt P04908); test: FRET or BRET; LANCE TR-FRET forward titration: increasing His–MYC-MAX added to H2B(T122C)-biotinylated NCP SHL+5.1 with Eu-streptavidin, in the presence or absence of OCT4
[8] = test system: MYC bHLH-LZ;MAX bHLH-LZ (human;human), P01106-1+P61244; test: SeEN-seq (EMSA + NGS); conditions: 62.5 nM TF; EMSA/SeEN-seq: 20 mM Tris-HCl pH 7.5, 75 mM NaCl, 10 mM KCl, 1 mM MgCl2, 0.1 mg/ml BSA, 1 mM DTT, room temp ~1 h; TR-FRET: 20 mM Tris-HCl pH 7.5, 75 or 125 mM …

MYC bHLH-LZ;MAX bHLH-LZ (human;human), P01106-1+P61244, sequence (P01106 366-452, chain 1 of 2): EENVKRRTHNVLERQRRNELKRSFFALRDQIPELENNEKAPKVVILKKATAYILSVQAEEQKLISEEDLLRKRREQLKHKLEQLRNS
MYC bHLH-LZ;MAX bHLH-LZ (human;human), P01106-1+P61244, sequence (P61244 22-102, chain 2 of 2): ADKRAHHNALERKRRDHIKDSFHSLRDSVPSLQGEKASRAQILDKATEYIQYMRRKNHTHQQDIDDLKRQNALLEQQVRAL

## wild-type MYC-MAX–Spy, labelled with JF549–SpyCatcher (from UniProt P61244) MYC:S405Y; MYC:A408R
[1]
  other: dwell time τoff,1: 0.6 s

## NCP SHL+5.1 for TR-FRET
[2]
  binding signal (fold tighter with OCT4): 3

## CLOCK-BMAL1 bHLH PAS-AB heterodimer (from UniProt O08785 26-395; Q9WTL8 62-441) (complex)
[3]
  N (minority species): 2
  percent bound (total amount of CLOCK-BMAL1 bound, single E-box): 19%
[4]
  stoichiometry N: 1
[5]
  percent bound (total amount of CLOCK-BMAL1 bound, tandem E-boxes): 51%

## wild-type MYC-MAX–Spy, labelled with JF549–SpyCatcher (from UniProt P61244) MAX:Y73A; MAX:R76A
[1]
  other: dwell time τoff,1: 0.86 s
  other: dwell time τoff,2: 22 s

## NCP SHL+5.8 (W601)
[6]; 20 nM NCP, single E-box
  binding signal: 19 % bound

## MYC-MAX bHLH LZ heterodimer (from UniProt P61244 22-102) (complex)
[7]
  fold strengthening of the binding isotherm in the presence of OCT4: 3 fold

## SeEN-seq NCP, E-box at SHL+5.8
[8]
  binding signal (log2 enrichment): 3.5

## NCP SHL+5.8-tandem
[6]; tandem E-box
  binding signal: 51 % bound

## SeEN-seq NCP, E-box at SHL-6.2
[8]
  binding signal (log2 enrichment): 2.2
